Reference: patent US7902330 (ALBERT EINSTEIN COLLEGE OF MEDICINE OF YESHIVA UNIVERSITY, dated 2011)
Starred links: 1 amine or outer side, 2 acyl side, 3 side chain; linkers in the order of their positions; H or OH if unused. Non-standard residues stand in square brackets, D forms with d. *: point of attachment. 4‑nitrohippuryl = O=C(NCC(=O)*)c1ccc([N+](=O)[O-])cc1; Benzoyl(4-(pyrrol-1-yl)) = O=C(c1ccc(-n2cccc2)cc1)*; bis(2,3-dihydroxybenzyl) = not defined here; Cysteamide = C(CS[*:3])N[*:1]; Dap = NC[C@H](N)C(=O)O

Key:
protein kinase C ζ [1] = target: T1, protein kinase C ζ (UniProt Q05513 1-592, limits assumed); test: PKC ζ 33P kinase assay, double reciprocal plots at variable peptide substrate; competitive pattern
T1 construct: also called PKCζ; PKC ζ
T1 sequence (looked up): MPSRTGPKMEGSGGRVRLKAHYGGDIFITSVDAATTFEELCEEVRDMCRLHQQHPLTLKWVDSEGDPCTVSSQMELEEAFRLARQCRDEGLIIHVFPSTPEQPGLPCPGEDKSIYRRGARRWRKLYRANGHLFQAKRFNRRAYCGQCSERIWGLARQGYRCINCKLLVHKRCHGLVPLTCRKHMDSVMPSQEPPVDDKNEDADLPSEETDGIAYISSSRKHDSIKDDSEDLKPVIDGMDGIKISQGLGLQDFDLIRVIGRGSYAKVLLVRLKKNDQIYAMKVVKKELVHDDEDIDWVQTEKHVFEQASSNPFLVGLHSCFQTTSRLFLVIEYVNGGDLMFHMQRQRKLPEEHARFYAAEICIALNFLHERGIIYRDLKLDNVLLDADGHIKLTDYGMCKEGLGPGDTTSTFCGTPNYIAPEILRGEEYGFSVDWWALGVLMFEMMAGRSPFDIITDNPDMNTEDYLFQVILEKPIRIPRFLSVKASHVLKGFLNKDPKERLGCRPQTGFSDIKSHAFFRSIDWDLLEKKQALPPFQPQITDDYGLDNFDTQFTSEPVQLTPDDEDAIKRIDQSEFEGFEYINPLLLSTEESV
Procedure: K_i determinations. […] ATP for radioactive detection. 10 µL enzyme diluted buffer containing 20 mM Tris (pH 7.5), PKC (10 ng/well), 0.5 mM DTT, BSA (375 µg/mL) and 0.5 mM EDTA.4Na.2H_2O was added to initiate the reaction. Total reaction volume in each well was 50 µL. All the wells were tested in the same plate and each concentration was tested in triplicate. Subsequent assay workup and scintillation counting were performed as described above. Double reciprocal plots were obtained at different concentrations of substrates. K_i values were calculated using Enzyme Kinetics, SigmaPlot (SPSS Inc.).

protein kinase C γ [2] = target: T2, protein kinase C γ (UniProt P05129 1-697, limits assumed); test: cell-based or functional assay
protein kinase Cα [3] = target: T3, protein kinase Cα (UniProt P17252 1-672, limits assumed); test: cell-based or functional assay
protein kinase C η [4] = target: T4, protein kinase C η (UniProt P24723 1-683, limits assumed); test: cell-based or functional assay
protein kinase C ε [5] = target: T5, protein kinase C ε (UniProt Q02156 1-737, limits assumed); test: cell-based or functional assay
T5 sequence (looked up): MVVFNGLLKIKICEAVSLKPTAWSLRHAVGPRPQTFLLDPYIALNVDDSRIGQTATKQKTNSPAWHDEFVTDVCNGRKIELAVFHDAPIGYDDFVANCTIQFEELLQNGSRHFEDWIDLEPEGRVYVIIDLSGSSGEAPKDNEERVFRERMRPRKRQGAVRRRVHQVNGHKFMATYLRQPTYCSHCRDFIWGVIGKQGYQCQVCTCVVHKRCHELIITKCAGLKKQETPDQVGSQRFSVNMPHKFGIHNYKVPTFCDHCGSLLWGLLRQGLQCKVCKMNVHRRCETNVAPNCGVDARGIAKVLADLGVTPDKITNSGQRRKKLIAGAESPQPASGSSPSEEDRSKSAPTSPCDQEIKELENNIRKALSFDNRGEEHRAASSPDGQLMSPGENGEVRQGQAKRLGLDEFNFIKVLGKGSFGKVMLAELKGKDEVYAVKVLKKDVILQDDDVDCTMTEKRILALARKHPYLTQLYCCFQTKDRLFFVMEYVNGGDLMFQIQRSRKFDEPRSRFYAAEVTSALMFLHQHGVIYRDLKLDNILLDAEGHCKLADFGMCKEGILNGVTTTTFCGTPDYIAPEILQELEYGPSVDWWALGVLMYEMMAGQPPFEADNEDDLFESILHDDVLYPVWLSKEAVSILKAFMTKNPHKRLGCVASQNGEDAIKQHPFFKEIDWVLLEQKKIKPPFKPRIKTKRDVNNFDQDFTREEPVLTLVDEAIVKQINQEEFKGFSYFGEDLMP

protein kinase C βI [6] = target: T6, protein kinase C βI (UniProt P05771-1 1-671, limits assumed); test: cell-based or functional assay
protein kinase C θ [7] = target: T7, protein kinase C θ (UniProt Q04759 1-706, limits assumed); test: cell-based or functional assay
protein kinase C ζ [8] = target: T1, protein kinase C ζ; test: cell-based or functional assay
protein kinase C γ [9] = target: T2, protein kinase C γ; test: cell-based or functional assay; remark: listed apart in the source
protein kinase Cα [10] = target: T3, protein kinase Cα; test: cell-based or functional assay; remark: listed apart in the source
protein kinase C η [11] = target: T4, protein kinase C η; test: cell-based or functional assay; remark: listed apart in the source
protein kinase C ε [12] = target: T5, protein kinase C ε; test: cell-based or functional assay; remark: listed apart in the source
protein kinase C βI [13] = target: T6, protein kinase C βI; test: cell-based or functional assay; remark: listed apart in the source
protein kinase C θ [14] = target: T7, protein kinase C θ; test: cell-based or functional assay; remark: listed apart in the source
protein kinase C ζ [15] = target: T1, protein kinase C ζ; test: cell-based or functional assay; remark: listed apart in the source
[16] = target: T8, protein kinase C τ (atypical; ι in the tables) (UniProt P41743 1-596); test: cell-based or functional assay
T8 sequence (looked up): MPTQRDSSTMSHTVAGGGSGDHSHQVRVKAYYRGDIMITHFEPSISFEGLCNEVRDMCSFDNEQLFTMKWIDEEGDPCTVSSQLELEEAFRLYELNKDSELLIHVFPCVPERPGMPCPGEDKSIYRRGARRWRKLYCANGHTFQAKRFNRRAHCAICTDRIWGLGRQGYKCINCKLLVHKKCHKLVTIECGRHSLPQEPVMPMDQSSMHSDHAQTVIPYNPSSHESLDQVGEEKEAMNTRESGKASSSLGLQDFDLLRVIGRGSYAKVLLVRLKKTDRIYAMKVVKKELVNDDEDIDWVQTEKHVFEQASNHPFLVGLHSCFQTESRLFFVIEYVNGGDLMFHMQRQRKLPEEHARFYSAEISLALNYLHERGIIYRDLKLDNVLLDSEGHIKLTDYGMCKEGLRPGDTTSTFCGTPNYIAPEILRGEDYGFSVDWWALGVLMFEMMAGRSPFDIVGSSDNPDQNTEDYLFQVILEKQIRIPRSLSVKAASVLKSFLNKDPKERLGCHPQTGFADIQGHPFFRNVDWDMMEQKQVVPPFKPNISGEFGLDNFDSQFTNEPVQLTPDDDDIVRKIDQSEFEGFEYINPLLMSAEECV

protein kinase Cα [17] = target: T3, protein kinase Cα; test: equilibrium dialysis with fluorescence read-out, 250 nM PKCα and 500 nM peptide 7, 4° C., without AMP-PNP
Procedure: (§1) Determination of K_D Values. […] All samples were prepared in a buffer containing 50 mM HEPES (pH 7.5), 0.8 mM CaCl_2.2H_2O, 13.6 mM MgCl_2.6H_2O, 0.56 mM EGTA.Na, phosphatidylserine (90 µg/mL), diacylglycerol (16 µg/mL), 4 mM Tris (pH 7.5), 0.2 mM DTT, BSA (146 µg/mL), 0.2 mM EDTA.4Na.2H_2O and AMP-PNP (a nonhydrolyzable ATP analogue) or without AMP-PNP at pH 7.5. Slide-A-Lyzer dialysis slide cassettes (Pierce, 10K MWCO, 0.1-0.5 mL capacity) were employed and contained 250 nM PKCα and 500 nM fluorescein-labeled peptide 7. The slide cassettes contained a final volume of 180 µL. The cassettes were placed in beaker containing a volume of buffer solution that was at least 500-fold greater than that of the sample volume in the dialysis slide cassette. Equilibrium dialysis experiments were performed over a period of 16 hr and maintained at 4° C. The fluorescence intensity of the solutions in the slide cassette (F_i) and in the beaker (F_o) was measured. The excitation wavelength for the fluorescein-labeled peptide 7 was 499 nm and the emission monitored at 519 nm. The K_D values were calculated from Equation 1.

protein kinase Cα [18] = target: T3, protein kinase Cα; test: equilibrium dialysis with fluorescence read-out, 250 nM PKCα and 500 nM peptide 7, 4° C., with AMP-PNP
Procedure: as §1

T7 sequence (Q04759 whole entry): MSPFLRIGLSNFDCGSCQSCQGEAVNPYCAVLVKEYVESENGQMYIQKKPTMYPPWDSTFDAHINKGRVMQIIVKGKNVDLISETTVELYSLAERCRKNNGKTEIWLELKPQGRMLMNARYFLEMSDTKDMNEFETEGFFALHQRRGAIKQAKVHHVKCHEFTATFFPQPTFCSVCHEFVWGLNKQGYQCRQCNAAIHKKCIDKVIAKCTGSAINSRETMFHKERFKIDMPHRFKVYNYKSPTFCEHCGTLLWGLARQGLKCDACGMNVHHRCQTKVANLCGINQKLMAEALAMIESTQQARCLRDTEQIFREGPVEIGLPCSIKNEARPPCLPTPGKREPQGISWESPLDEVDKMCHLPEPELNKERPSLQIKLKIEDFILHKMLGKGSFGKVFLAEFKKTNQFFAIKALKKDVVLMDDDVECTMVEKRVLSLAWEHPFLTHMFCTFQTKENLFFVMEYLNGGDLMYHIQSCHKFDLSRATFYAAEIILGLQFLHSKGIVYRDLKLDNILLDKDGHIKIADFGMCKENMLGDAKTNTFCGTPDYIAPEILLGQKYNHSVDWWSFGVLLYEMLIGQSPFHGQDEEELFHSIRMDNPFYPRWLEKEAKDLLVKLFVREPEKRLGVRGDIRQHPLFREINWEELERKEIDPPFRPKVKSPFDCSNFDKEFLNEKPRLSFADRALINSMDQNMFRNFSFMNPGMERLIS
T4 sequence (P24723 whole entry): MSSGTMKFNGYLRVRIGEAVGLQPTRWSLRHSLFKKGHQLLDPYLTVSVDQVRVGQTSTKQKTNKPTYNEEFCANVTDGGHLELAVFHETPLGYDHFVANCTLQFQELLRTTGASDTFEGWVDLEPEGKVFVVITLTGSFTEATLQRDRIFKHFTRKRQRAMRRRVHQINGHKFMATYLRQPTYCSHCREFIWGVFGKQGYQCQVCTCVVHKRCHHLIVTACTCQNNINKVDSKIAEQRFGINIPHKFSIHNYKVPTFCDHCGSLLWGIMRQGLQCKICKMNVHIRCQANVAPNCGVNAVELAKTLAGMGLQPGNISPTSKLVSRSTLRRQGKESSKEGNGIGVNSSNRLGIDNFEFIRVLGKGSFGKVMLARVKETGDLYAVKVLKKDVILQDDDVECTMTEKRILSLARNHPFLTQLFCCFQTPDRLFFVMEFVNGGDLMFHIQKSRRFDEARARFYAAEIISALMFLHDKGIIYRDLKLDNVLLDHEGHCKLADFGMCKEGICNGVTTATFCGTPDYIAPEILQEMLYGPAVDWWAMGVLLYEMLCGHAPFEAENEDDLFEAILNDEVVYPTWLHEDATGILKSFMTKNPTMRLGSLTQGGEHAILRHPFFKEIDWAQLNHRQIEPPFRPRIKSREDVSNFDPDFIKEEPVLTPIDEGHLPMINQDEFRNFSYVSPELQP
T6 sequence (P05771 whole entry): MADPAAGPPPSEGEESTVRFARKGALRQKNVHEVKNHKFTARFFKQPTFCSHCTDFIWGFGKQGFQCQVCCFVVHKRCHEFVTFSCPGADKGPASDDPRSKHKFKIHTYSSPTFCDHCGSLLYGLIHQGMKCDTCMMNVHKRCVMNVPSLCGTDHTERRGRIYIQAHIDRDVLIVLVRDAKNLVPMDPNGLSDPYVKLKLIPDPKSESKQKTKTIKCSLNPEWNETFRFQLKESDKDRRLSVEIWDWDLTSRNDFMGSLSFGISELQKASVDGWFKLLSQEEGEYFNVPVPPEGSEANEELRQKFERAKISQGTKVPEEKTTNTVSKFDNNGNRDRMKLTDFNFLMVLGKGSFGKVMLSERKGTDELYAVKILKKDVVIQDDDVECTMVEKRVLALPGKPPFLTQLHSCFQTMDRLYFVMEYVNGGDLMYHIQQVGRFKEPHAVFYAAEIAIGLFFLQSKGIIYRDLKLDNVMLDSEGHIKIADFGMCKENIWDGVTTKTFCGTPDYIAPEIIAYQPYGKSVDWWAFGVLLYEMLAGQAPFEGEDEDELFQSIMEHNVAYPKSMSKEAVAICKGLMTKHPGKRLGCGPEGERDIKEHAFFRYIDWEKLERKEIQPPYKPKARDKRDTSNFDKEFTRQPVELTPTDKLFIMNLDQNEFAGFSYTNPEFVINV

Binder | Ki (protein kinase C ζ [1]) | IC50, PKC kinase assay (33P, peptide substrate) (protein kinase C γ [2]) | IC50, PKC kinase assay (33P, peptide substrate) (protein kinase Cα [3]) | IC50, PKC kinase assay (33P, peptide substrate) (protein kinase C η [4]) | IC50, PKC kinase assay (33P, peptide substrate) (protein kinase C ε [5]) | IC50, PKC kinase assay (33P, peptide substrate) (protein kinase C βI [6]) | IC50, PKC kinase assay (33P, peptide substrate) (protein kinase C θ [7]) | IC50, PKC kinase assay (33P, peptide substrate) (protein kinase C ζ [8]) | Fold selectivity (IC50), PKC ζ = 1 (protein kinase C γ [9]) | Fold selectivity (IC50), PKC ζ = 1 (protein kinase Cα [10]) | Fold selectivity (IC50), PKC ζ = 1 (protein kinase C η [11]) | Fold selectivity (IC50), PKC ζ = 1 (protein kinase C ε [12]) | Fold selectivity (IC50), PKC ζ = 1 (protein kinase C βI [13]) | Fold selectivity (IC50), PKC ζ = 1 (protein kinase C θ [14]) | Fold selectivity (IC50), PKC ζ = 1 (protein kinase C ζ [15]) | IC50 or Ki of the most potently inhibited isoform (protein kinase C ζ [15]) | Fold selectivity (IC50), PKC ζ = 1 [16] | Kd (protein kinase Cα [17]) | Kd (protein kinase Cα [18])
{bis(2,3-dihydroxybenzyl)}-RRQG[Dap](4‑nitrohippuryl)FMYF-Cysteamide (reading uncertain) [Compound G (doubly alkylated analogue of F)] | 0.0039 µM | 38.2 µM | 47.5 µM | 15.3 µM | 34.5 µM | 5.5 µM | 16.7 µM | 0.00075 µM | 5090 fold | 6330 fold | 2040 fold | 4600 fold | 730 fold | 2230 fold | 1 fold | 0.0075 µM | 1490 fold | – | –
Ac-ARRGALR[Dap](Benzoyl(4-(pyrrol-1-yl)))A-{NH(CH2)2S-CH2CONH‑fluorescein‑5‑yl} [fluorescein-labeled peptide 7] | – | – | – | – | – | – | – | – | – | – | – | – | – | – | – | – | – | 1.8 µM | 0.203 µM
